Measurements published in US11072643B2, “Fusion protein” (ADVANCECOR GMBH, priority 2017, dated 2021).
Entries after “also recorded” stand apart in the source; their conditions may differ.

How the values were obtained:
[1] = test system: Citrated blood of healthy donors; test: In vitro closure time with Innovance PFA-200; format: cell-based; settings: human blood ex vivo; for PFA-200 closure time, COL/ADP cartridges / PFA-200 closure time, COL/EPI cartridges: GPVI-CD39 21.7 to 217 nmol/L, versus PBS buffer control
Excerpt: (§1) Informed consent was obtained as approved by the local Ethics Committee. An overall number of 58 healthy volunteers was included into the study: blood samples from 39 subjects were taken for in vitro experiments using vascular agonists, and blood samples from 19 subjects for experiments involving human plaque material.
Citrated blood of healthy donors was mixed with antagonist in concentrations indicated in the figures, and added to Dade® PFA COL/EPI, Dade® PFA COL/ADP, or Innovance® PFA P2Y test cartridges (Siemens Healthcare, Erlangen, Germany). Blood was aspirated under high shear conditions (>5000/s) through a capillary onto a membrane with a small aperture coated with substances which activate platelets and lead to closure of this aperture. The time until closure of this aperture is monitored and expressed as in vitro closure time with a maximum closure time of 300 s.

human platelets = test: Platelet aggregation in human blood under static conditions (Multiplate impedance aggregometry); format: cell-based; settings: for inhibition of ADP-induced platelet aggregation: 6.5 μM ADP, equimolar concentrations; for inhibition of ADP-induced platelet aggregation / inhibition of collagen-induced platelet aggregation: human blood; for inhibition of platelet aggregation triggered by human plaque material: same concentrations
Method: as §1
The effect of GPVI-CD39 and control proteins on platelet aggregation was analyzed using the Multiplate® device (25). 1:1 diluted hirudin-anticoagulated blood was pre-incubated with antagonist for 3 min in the test cell without stirring to avoid platelet pre-activation (26). Agonist was added and samples were incubated for 6 min at 37° C. with stirring. The following agonists were used: 6.5 μM ADP, 12 μg/ml collagen isolated from rabbit aorta, or 103 μg/ml collagen type I secreted by human fibroblasts (VitroCol®, Advanced BioMatrix, San Diego, Calif.). Platelet aggregation was measured in arbitrary units over the time period (arbitrary units (AU)*min) (cumulative aggregation values).

C57BL/6J mice = test: In vivo tail bleeding time in mice; parameters: species or system mouse; settings: 15 min after IV 13 nmol/kg (4 mg/kg GPVI-CD39, 2 mg/kg GPVI-Fc), versus vehicle or buffer
Method: Test or control substances were applied into the tail vein of C57BL/6J mice. Animals were anesthetized by intraperitoneal injection of 0.5 mg/kg medetomidine, 5 mg/kg midazolame, and 0.05 mg/kg fentanyl. 10 min after protein delivery a blood sample of 20 μl was drawn for analysis of recombinant protein content and ADPase activity using a heparinized capillary. 15 min after protein application the distal 2 mm of the tail were cut off, the tail was immediately immersed into pre-warmed PBS (37° C.) buffer and time-monitored until bleeding stopped for at least 30 s. […] Animals were sacrificed and a final blood sample stored for analysis.

[2] = Pharmacokinetic analysis: protein concentration in plasma by Fc-specific sandwich ELISA; format: in vivo, mouse; settings: mice, 4 mg/kg IV
Method: (§2) ale and female wild type C57BL/6J mice of the age of 12-22 weeks were used in this small scale study. An overall number of 9 mice were investigated. GPVI-CD39 or solCD39 were applied in a volume of 5 ml/kg into the right tail vein. At time points indicated in the figure blood sampling was performed by incision of the left tail vein using 25 μl heparinized capillaries. Blood samples were recovered by centrifugation at 2400×g for 10 min. The upper plasma phase was transferred to fresh tubes and stored frozen at −20° C.
The concentration of GPVI-CD39 or Fc control protein in plasma samples was determined by Fc-specific sandwich ELISA. Wells of a MaxiSorp 96-well plate (Thermo Fisher Scientific, Waltham, Mass.) were coated with 0.1 μg/well goat-anti-human Fcγ antibody. Wells were washed three times with phosphate-buffered saline and tween-20 (PBST) between incubations. After blocking with 3% skimmed milk in PBST wells were incubated for 1 h with 50 μl of plasma from GPVI-CD39 treated (1:200) or Fc (1:500) treated mice diluted in PBST. Wells were incubated for 1 h with 100 μl of 80 ng/ml goat-anti-human IgG (H+L)-POD detection antibody. POD activity was visualized using 100 μl of Ultra TMB-ELISA substrate (Thermo Fisher Scientific, Waltham, Mass.) and signal intensities were read with a Tecan Infinite F200 ELISA reader.

[3] = ADPase activity in plasma samples from the pharmacokinetic study; format: in vivo, mouse; settings: mice, IV 4 mg/kg GPVI-CD39 or 2 mg/kg solCD39, up to 48 h
Method: (§3) Various concentrations of GPVI-CD39 or solCD39 protein or plasma samples from the pharmacokinetic study diluted 1:500-1:2000 in assay buffer were incubated in 25 mM Tris-HCl, 5 mM CaCl2, pH 7.5 with 200 μM ADP in a total volume of 100 μl for 30 min or 5 min at 37° C. Enzymatically released Pi was detected using the Malachite Green Phosphate Detection Kit (R&D Systems, Minneapolis, Minn.) according to the supplier's manual. A serial dilution of Pi standard was analyzed in parallel which facilitates quantification of released Pi. Absorbance was measured at a wave length of 630 nm using a Tecan Infinite 200 ELISA reader. Enzymatic activity of purified protein was calculated taking incubation time and protein amount into account and expressed as Units per mg of protein.
as §2

C57BL/6J wild type mice = test: In vivo thrombus formation after FeCl3 injury in carotid arteries; parameters: species or system mouse
Method: For examination of arterial thrombus formation in vivo, 6-8 weeks old C57BL/6J wild type mice were anesthetized by injection of midazolame (5 mg/kg body weight), medetomidine (0.5 mg/kg body weight) and fentanyl (0.05 mg/kg body weight). In the ferric chloride model, an overall number of 21 mice was studied.
The common carotid artery was dissected free and the mice were injected intravenously 30 minutes before carotid injury with GPVI-CD39 (3 mg/kg body weight) or its control and with GP1bα-488 (Emfret Analytics, Eibelstadt, Germany) for platelet visualization. The carotid was exteriorized and injured by topical application of a filter paper saturated with 15% ferric chloride for 1 minute. Thrombus formation in arteries was monitored for 20 minutes or until complete occlusion (stop of blood flow for >1 min). Digital films and images were recorded with a Nikon eclipse intravital microscope and analysed offline.

platelets = test: Plaque-induced platelet aggregation under flow; format: cell-based; settings: 150 nM GPVI-CD39
[4] = ADPase activity of purified protein (Malachite Green phosphate detection); format: biochemical; settings: purified protein at various concentrations, 200 μM ADP, 37° C., pH 7.5
Method: as §3

[5] = 103 μg/ml collagen secreted by human fibroblasts (VitroCol)
[6] = human plaque material 333 μg/ml

IC50 (human platelets; human plaque material 333 μg/ml, approximate, read-out: IC50 of inhibition of platelet aggregation triggered by human plaque material) [nM]	Molecule	PFA-200 closure time, COL/ADP cartridges [1]	PFA-200 closure time, COL/EPI cartridges [1]	PFA-200 closure time, P2Y cartridges ([1]; 1.9 μM)	inhibition of ADP-induced platelet aggregation (human platelets)	inhibition of collagen-induced platelet aggregation (human platelets; [5])	inhibition of platelet aggregation triggered by human plaque material (human platelets; [6])	tail bleeding time (C57BL/6J mice)	inhibition of collagen-induced platelet aggregation (human platelets; 12 μg/ml collagen isolated from rabbit aorta)	PFA-200 closure time, P2Y cartridges ([1]; 47 nmol/L)	PFA-200 closure time, P2Y cartridges ([1]; 217 nmol/L)	plasma concentration time course [2]	mean plasma concentration ([2]; 5 min after application) [µg/mL]	plasma concentration ([2]; after 48 h) [µg/mL]	ADPase activity in plasma over time [3]	time to vessel occlusion (C57BL/6J wild type mice; 15% ferric chloride carotid injury, 3 mg/kg (10 nmol/kg) IV) [s]	effect on ferric chloride-induced thrombus formation / occlusion time (C57BL/6J wild type mice; 15% ferric chloride, 10 nmol/kg IV (3 mg/kg GPVI-CD39, 1.5 mg/kg GPVI-Fc), versus vehicle)	inhibition of plaque-induced platelet aggregation (platelets) [%]	mean ADPase activity (specific activity) [4] [U/mg]
–	CC(=O)Oc1ccccc1C(=O)O [ASA, acetyl salicylic acid, reference compound]	No significant differences between groups	inhibited the closure of the aperture completely; also recorded: significantly (p=0.04) prolonged	–	–	–	–	–	–	–	–	–	–	–	–	–	–	–	–
–	CCCSc1nc(N[C@@H]2C[C@H]2c2ccc(F)c(F)c2)c2nnn([C@@H]3C[C@H](OCCO)[C@@H](O)[C@H]3O)c2n1 [ticagrelor, reference compound]	No significant differences between groups	–	prolongations	–	–	–	–	–	–	–	–	–	–	–	–	–	–	–
–	GPVI-Fc: dimeric soluble glycoprotein VI-Fc fusion protein (Revacept), Fc derived from human IgG1, in clinical investigation (protein, left off: a dimerising Fc or GST, dimeric soluble glycoprotein VI-Fc fusion protein (Revacept), Fc derived from human IgG1, in clinical investigation) QSGPLPKPSLQALPSSLVPLEKPVTLRCQGPPGVDLYRLEKLSSSRYQDQAVLFIPAMKRSLAGRYRCSYQNGSLWSLPSDQLELVATGVFAKPSLSAQPGPAVSSGGDVTLQCQTRYGFDQFALYKEGDPAPYKNPERWYRASFPIITVTAAHSGTYRCYSFSSRDPYLWSAPSDPLELVVTGTSVTPSRLPTEPPSPVAEFSEATAELTVSFTNEVFTTETSRSITASPKESDSPAGPARQYYTK	No significant differences between groups	–	–	no inhibitory effect	minor inhibition	markedly and significantly less effective than GPVI-CD39	no differences	–	–	–	–	–	–	–	–	–	–	–
~30	GPVI-CD39: fusion protein of extracellular domain of platelet glycoprotein VI, Fc of human IgG2 and extracellular domain of human CD39, 15 amino acid linker (SEQ ID NO: 1) (protein, listed as Homo sapiens) QSGPLPKPSLQALPSSLVPLEKPVTLRCQGPPGVDLYRLEKLSSSRYQDQAVLFIPAMKRSLAGRYRCSYQNGSLWSLPSDQLELVATGVFAKPSLSAQPGPAVSSGGDVTLQCQTRYGFDQFALYKEGDPAPYKNPERWYRASFPIITVTAAHSGTYRCYSFSSRDPYLWSAPSDPLELVVTGTSVTPSRLPTEPPSSVAEFSEATAELTVSFTNKVFTTETSRSITTSPKESDSPAGPARQYYTKGNGGRVECPPCPAPPVAGPSVFLFPPKPKDTLMISRTPEVTCVVVDVSHEDPEVQFNWYVDGVEVHNAKTKPREEQFNSTFRVVSVLTVVHQDWLNGKEYKCKVSNKGLPAPIEKTISKTKGQPREPQVYTLPPSREEMTKNQVSLTCLVKGFYPSDIAVEWESNGQPENNYKTTPPMLDSDGSFFLYSKLTVDKSRWQQGNVFSCSVMHEALHNHYTQKSLSLSPGKGGGGSGGGGSGGGGSTQNKALPENVKYGIVLDAGSSHTSLYIYKWPAEKENDTGVVHQVEECRVKGPGISKFVQKVNEIGIYLTDCMERAREVIPRSQHQETPVYLGATAGMRLLRMESEELADRVLDVVERSLSNYPFDFQGARIITGQEEGAYGWITINYLLGKFSQKTRWFSIVPYETNNQETFGALDLGGASTQVTFVPQNQTIESPDNALQFRLYGKDYNVYTHSFLCYGKDQALWQKLAKDIQVASNEILRDPCFHPGYKKVVNVSDLYKTPCTKRFEMTLPFQQFEIQGIGNYQQCHQSILELFNTSYCPYSQCAFNGIFLPPLQGDFGAFSAFYFVMKFLNLTSEKVSQEKVTEMMKKFCAQPWEEIKTSYAGVKEKYLSEYCFSGTYILSLLLQGYHFTADSWEHIHFIGKIQGSDAGWTLGYMLNLTNMIPAEQPLSTPLSHST	no significant increase of closure times; also recorded: No significant differences between groups	no significant increase of closure times	–	Effective inhibition; also recorded: markedly reduces ADP-induced platelet aggregation	inhibited platelet aggregation significantly; also recorded: reduces platelet aggregation more strongly than GPVI-Fc alone	dose-dependent inhibition	no differences; also recorded: no effect on systemic bleeding times	highly significant, dose-dependent inhibition; also recorded: reduces platelet aggregation more strongly than GPVI-Fc alone	statistically significant increase in closure time	statistically significant increase in closure time	decreased rapidly in the course of two hours	95	6	diminished rapidly during the first 60 min but was still detectable at very low levels after 2 d	1083	fully effective in inhibiting arterial thrombosis; also recorded: strongly delayed ferric chloride-induced thrombus formation	81	11.2±4.0
